According to patent publication US20180086841A1 (Merck Sharp & Dohme, published 2018):

Key:
Assay in all cases: flow cytometry on CHO-K1 transfectants, right sub-column
G16A = target: T1, G16A
T1 construct: also called hCD27 G16A
T1 receptor chain: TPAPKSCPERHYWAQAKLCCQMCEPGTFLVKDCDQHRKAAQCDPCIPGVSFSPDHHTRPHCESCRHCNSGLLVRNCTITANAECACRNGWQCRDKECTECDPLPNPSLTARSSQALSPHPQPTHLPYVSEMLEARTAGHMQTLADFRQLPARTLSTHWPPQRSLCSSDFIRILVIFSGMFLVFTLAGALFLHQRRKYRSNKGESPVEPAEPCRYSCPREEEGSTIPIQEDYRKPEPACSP
Experimental: (§1) The hCD27 variants that were tested are listed. Amino acids correspond to the UniProt P26842-1 sequence. Amino acids 1-20 constitute the signal peptide. Binding is expressed as the geometric mean of the FITC signal, relative to antibody binding to hCD27, which was set at 100%.
(§2) The ability of several anti-hCD27 antibodies to bind to a series of hCD27 alanine mutants was determined using CHO-K1 cells, transiently transfected pCI-neo empty vector, pCI-neo.hCD27 and several pCI-neo.CD27Ala mutant constructs.
(§3) Detached cells were transferred to 96 wells round-bottomed well plates at approximately 1.2×10⁵ cells/well. After spinning down the cells, discarding the supernatants and re-suspending the cells in the residual volume, the primary antibodies were added and incubated for 30 minutes at 4° C. Cells were washed three times with DPBS/BSA 1%, followed by centrifugation, discarding of the supernatants and re-suspension in the residual volume. […] After washing once, antibody binding was detected using the HTS plate reader (FACS Canto II) and FlowJo software for data analysis. Debris, dead cells and doublets were excluded from the analysis. Binding was expressed as the geometric mean of the FITC signal, relative to antibody binding to hCD27, which was set at 100%.

E9A = target: T2, E9A
T2 construct: also called hCD27 E9A
T2 receptor chain: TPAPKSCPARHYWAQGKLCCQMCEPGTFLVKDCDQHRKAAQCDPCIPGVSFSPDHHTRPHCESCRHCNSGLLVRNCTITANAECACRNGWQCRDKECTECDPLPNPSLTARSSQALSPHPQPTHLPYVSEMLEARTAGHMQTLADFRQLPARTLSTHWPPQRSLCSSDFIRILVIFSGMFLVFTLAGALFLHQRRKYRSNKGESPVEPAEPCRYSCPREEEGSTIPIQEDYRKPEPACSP
Experimental: as §1, §2, §3

S63A = target: T3, S63A
T3 construct: also called hCD27 S63A
T3 receptor chain: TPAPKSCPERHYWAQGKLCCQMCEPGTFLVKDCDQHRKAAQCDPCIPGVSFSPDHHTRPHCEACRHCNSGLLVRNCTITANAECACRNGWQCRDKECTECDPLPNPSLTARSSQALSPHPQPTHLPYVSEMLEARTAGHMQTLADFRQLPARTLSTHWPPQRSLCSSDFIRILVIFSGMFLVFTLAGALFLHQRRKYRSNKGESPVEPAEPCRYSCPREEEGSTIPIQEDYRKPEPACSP
Experimental: as §1, §2, §3

V49A = target: T4, V49A
T4 construct: also called hCD27 V49A
T4 receptor chain: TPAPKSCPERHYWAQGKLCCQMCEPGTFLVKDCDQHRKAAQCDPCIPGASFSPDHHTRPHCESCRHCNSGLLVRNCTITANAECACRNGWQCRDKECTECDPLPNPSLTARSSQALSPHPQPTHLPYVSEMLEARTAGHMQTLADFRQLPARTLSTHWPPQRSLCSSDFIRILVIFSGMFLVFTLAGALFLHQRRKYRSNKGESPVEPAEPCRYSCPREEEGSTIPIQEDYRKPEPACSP
Experimental: as §1, §2, §3

H60A = target: T5, H60A
T5 construct: also called hCD27 H60A
T5 receptor chain: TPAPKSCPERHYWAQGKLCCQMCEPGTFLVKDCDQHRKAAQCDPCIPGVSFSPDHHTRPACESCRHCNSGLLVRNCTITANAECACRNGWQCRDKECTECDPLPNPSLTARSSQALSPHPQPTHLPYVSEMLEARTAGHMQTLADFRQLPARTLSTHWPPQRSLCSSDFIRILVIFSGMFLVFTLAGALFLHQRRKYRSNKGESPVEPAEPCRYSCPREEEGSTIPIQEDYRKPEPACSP
Experimental: as §1, §2, §3

R93A = target: T6, R93A
T6 construct: also called hCD27 R93A
T6 receptor chain: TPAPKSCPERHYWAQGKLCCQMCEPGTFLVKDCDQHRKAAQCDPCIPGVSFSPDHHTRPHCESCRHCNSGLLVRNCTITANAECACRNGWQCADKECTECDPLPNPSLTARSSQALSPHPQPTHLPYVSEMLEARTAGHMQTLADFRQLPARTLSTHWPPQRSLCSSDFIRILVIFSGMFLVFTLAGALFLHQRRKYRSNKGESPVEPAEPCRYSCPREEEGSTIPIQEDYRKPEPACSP
Experimental: as §1, §2, §3

W13A = target: T7, W13A
T7 construct: also called hCD27 W13A
T7 receptor chain: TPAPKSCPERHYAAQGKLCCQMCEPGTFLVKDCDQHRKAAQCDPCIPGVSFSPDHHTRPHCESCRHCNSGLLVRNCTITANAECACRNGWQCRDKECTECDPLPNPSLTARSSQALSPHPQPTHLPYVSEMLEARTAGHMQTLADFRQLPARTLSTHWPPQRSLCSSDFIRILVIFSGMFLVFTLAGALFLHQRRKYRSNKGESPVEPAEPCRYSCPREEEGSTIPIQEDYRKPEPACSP
Experimental: as §1, §2, §3

D32A = target: T8, D32A
T8 construct: also called hCD27 D32A
T8 receptor chain: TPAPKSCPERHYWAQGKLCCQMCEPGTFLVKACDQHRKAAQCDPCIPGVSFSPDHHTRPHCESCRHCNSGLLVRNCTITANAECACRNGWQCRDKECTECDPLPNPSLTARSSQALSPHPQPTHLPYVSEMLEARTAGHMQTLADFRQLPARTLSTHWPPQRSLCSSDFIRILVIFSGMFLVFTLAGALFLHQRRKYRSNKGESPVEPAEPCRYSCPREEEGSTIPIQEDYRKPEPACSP
Experimental: as §1, §2, §3

R87A = target: T9, R87A
T9 construct: also called hCD27 R87A
T9 receptor chain: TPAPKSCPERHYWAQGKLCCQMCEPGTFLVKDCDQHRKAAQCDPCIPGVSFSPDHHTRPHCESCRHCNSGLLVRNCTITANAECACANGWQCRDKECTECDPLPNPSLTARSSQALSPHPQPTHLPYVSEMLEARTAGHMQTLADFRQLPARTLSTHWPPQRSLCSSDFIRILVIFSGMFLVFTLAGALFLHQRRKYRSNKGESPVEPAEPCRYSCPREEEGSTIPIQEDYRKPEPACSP
Experimental: as §1, §2, §3

N88A = target: T10, N88A
T10 construct: also called hCD27 N88A
T10 receptor chain: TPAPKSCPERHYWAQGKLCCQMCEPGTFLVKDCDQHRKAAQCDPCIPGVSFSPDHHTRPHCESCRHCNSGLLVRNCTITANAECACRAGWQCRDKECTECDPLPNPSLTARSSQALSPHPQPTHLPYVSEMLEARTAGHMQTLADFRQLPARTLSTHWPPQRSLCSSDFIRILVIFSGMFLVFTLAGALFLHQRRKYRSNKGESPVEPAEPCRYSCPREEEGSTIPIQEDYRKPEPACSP
Experimental: as §1, §2, §3

binding, WT hCD27 = 100 (GM FITC) (G16A): 108%
binding, WT hCD27 = 100 (GM FITC) (E9A): 132%
binding, WT hCD27 = 100 (GM FITC) (S63A): 141%
binding, WT hCD27 = 100 (GM FITC) (V49A): 99.8%
binding, WT hCD27 = 100 (GM FITC) (H60A): 129%
binding, WT hCD27 = 100 (GM FITC) (R93A): 90%
binding, WT hCD27 = 100 (GM FITC) (W13A): 88.6%
binding, WT hCD27 = 100 (GM FITC) (D32A): 62.1%
binding, WT hCD27 = 100 (GM FITC) (R87A): 111%
binding, WT hCD27 = 100 (GM FITC) (N88A): 124%
B1: hCD27.131A (mouse parental 131A) (antibody, mouse IgG1, V domains shown)
VH: QIQLVQSGPELKKPGETVKISCKASGYTFTNYGMNWVKQAPGKGLKWMGWINTNTGEPTYAEEFKGRFAFSLETSATTAYLQINNLKNEDTATYFCAREGDAMDYWGQGTSVTVSS
VL: QIVLTQSPAIMSASPGEKVTMTCSASSSVSYMHWYQQKSGTSPKRWIYDTSKLASGVPARFSGSGSGTSYSLTISSMEAEDAATYYCQQWNSYPFTFGSGTKLEIK
notes: Mouse IgG1 antibody; also called mouse hCD27.131A
